From the nanobody polyreactivity screen of Harvey et al. (2022)

Assay: yeast display, Sf9 membrane polyspecificity reagent, FACS + sequencing; frameworks hold sequencing errors
Summary of the method: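 A nanobody's polyreactivity label depends on the gate it was sorted from. Yeast display cells were stained with 10% biotinylated, detergent-solubilized Sf9 membrane reagent for 1 hour at 4 °C, enriched on streptavidin microbeads and sorted by FACS. The low and high (top ~1%) gates were set on anti-HA fluorescence for expression and streptavidin fluorescence for reagent binding.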

For “QVQLVESGGGLVQAGGILRLSCAASGRIFGSYAMGWYRQAPGKERELVAVITKRGDSTYYADSVKGRFTISRDNAKNTVYLQMNSLKPEDTAVYYCNARVYPGYSFWAVFGYDYWGQGTQVTVSS”, which “polyreactivity (PSR sort gate)” value is on record?
Its value is “low polyreactivity”.

For “QVQLVESGGGLVQAGGILRLSCAASGRIFHRYTMGWYRQAPGKEREFVAAITTRAGSTYYADSVKGRFTISRDNAKYTVYLQMNSLKPEDTAVYYCNIRRHSLFGGTTTRYDYWGQGTQVTVSS”, which “polyreactivity (PSR sort gate)” value is on record?
The value was “high polyreactivity”.

Which “polyreactivity (PSR sort gate)” value does the source give for “QVQLVESGGGLVQAGGILRLSCAASGRIFLTYAMGWYRQAPGKERELVAAIRSRSGTTYYADSVKGRFTISRDNAKNTVYLQMNSMKPEDTAVYYCAAGGKSRSYYWGQGTQVTVSS” here?
Its value is “high polyreactivity”.

For “QVQLVESGGGLVQAGGILRLSCAASGRIFRGYAMVWYRQAPGKERELVAAISNGGGTNYADSVKGRFTISRDNAKNTVYLQMNSLKPEDTAVYYFATGFLQNYYKYTSSFRFYYWGQGTQVSVSS”, which “polyreactivity (PSR sort gate)” value is on record?
Its value is “high polyreactivity”.

For “QVQLVESGGGLVQAGGILRLSCAASGRIFVLNPMGWSRQAPGKERELVAASSGSGSRTYYADSVKGRFTISRDNAKNTVYLQMNSLKPEDTEVYYCNTVSRRSEHTYDYWGQGTQVTVSS”, which “polyreactivity (PSR sort gate)” value is on record?
The value was “high polyreactivity”.

For “QVQLVESGGGLVQAGGILRLSCAASGRIFYVNAMGWYRQAPGKERELVATIRRGGDTNYADSVKGRFTISRDNAKNTVYLQMNSLNPEDTAVYYCAAKAYQSSYQRYYWGQGTQVTVSS”, which “polyreactivity (PSR sort gate)” value is on record?
Its value is “high polyreactivity”.

For “QVQLVESGGGLVQAGGILRLSCAASGRITFSHNTMGWYIQAPGKERELVAAISSGGRTNYADSVKGRFTISRDNAKNTVYLQMNSLKPEDTAVYYCARESHYDFIYDGMDYWGQGTQVTVSS”, which “polyreactivity (PSR sort gate)” value is on record?
Its value is “low polyreactivity”.

For “QVQLVESGGGLVQAGGILRLSCAASGRTFAPYTMGWYRQAPGKERELVAVITRRDGRTYYADSVKGRFTISRDNAKNTFYLQMKSLKPEDNAVYYCCFLPADWYRPVRYLRTDSDYWGQGTKVTVSS”, which “polyreactivity (PSR sort gate)” value is on record?
The value was “low polyreactivity”.

Which “polyreactivity (PSR sort gate)” value does the source give for “QVQLVESGGGLVQAGGILRLSCAASGRTFFSNAMGWYRQAPGKEREFVAAISNGDNTYYADSVKGRFTISSDNAKNTVYLQMNSLKPDDTAVYYCAADQYWSWIYYPVVEYDYWGLGTQVTVSS” here?
The value was “low polyreactivity”.

Which “polyreactivity (PSR sort gate)” value does the source give for “QVQLVESGGGLVQAGGILRLSCAASGRTFNSYAMGWYRQAPGKERELVAAISWIGGSTYYADSVKGRFTISRDNAKNTVYLQMNSLKPEDTAVYYCAADSYRFYSGYYYWGQGTQVTVSS” here?
Its value is “low polyreactivity”.

Which “polyreactivity (PSR sort gate)” value does the source give for “QVQLVESGGGLVQAGGILRLSCAASGRTFYSNAMGWYRQAPGKARELVAAISRSGGRTYYADSVKGRFTISRDNAKISVYLQMNSLKTEDTAVYYCNKVRQNSSMDYWGQGTQVTVSS” here?
The value was “high polyreactivity”.

With “QVQLVESGGGLVQAGGILRLSCAASGSIFPFYAMGWYRQAPGKERELVATISWSGGRTYYADSVKGRFTISRDNANNTVYFQMNSLKPEVTAVYYCAAQSYDYWYDYDYWGQGTQVTVSS” as the sequence, how does the “polyreactivity (PSR sort gate)” value read?
The value was “high polyreactivity”.

For “QVQLVESGGGLVQAGGILRLSCAASGSIFSFYAMGWYRQAPGKERELVAAITRSGGTYYADSVKGRFTISRDNAKNTVYLQMNSLKPEDTAVYYCAAQYWYYYIWWEYYYWGQGTQVTVSS”, which “polyreactivity (PSR sort gate)” value is on record?
The value was “low polyreactivity”.

Which “polyreactivity (PSR sort gate)” value does the source give for “QVQLVESGGGLVQAGGILRLSCAASGSIFTRYAMGWYRQAPGKEREFVAAITWRGGRTSYADSVKGRFTISRDKAKNTVYLQMNSLKPEDTAVYYCNRRYPYRTYDYWGQGTQVTVSS” here?
The value was “high polyreactivity”.

For “QVQLVESGGGLVQAGGILRLSCAASGSIFYAYAMGWNRQAPGKEAEFVARISGSGGSTYYADSVKGRFTISRDNAKNTVYLQMNSLKPEDTAVYYCAATRERYKYYKRYYWGQGTQVTVSS”, which “polyreactivity (PSR sort gate)” value is on record?
Its value is “low polyreactivity”.

With “QVQLVESGGGLVQAGGILRLSCAASGSIIVYNSMVCYRQAPGKERELVARITGRGGRTYYADSVKGRFTISRDNAKNTVYLQMNSLKPEDTAVYYCAKYGYWGQGTQVTVSS” as the sequence, how does the “polyreactivity (PSR sort gate)” value read?
The value was “high polyreactivity”.

Which “polyreactivity (PSR sort gate)” value does the source give for “QVQLVESGGGLVQAGGILRLSCAASGSIYYAMGWYRQAPGKERELVAGINSSGSTNYADSVKGRFTISRDNAKNTVYLQMNSLKPEDTAVYYCAARAIVSFDYWGQGTQVTVSS” here?
The value was “low polyreactivity”.

With “QVQLVESGGGLVQAGGILRLSCAASGSNFAPYAMGWYRQSPGKERELVATISASGGTTYYADSVKGRFTISRDTAKNTVYLQMNSLKPEDTAVYYCNADSNWYYLGNYYGLNDYWGQGTQVTVSS” as the sequence, how does the “polyreactivity (PSR sort gate)” value read?
The value was “low polyreactivity”.

For “QVQLVESGGGLVQAGGILRLSCAASGSTFYQYAMGWYRQAPGKERELVAAITRGGRTYYADSVKGRFTISRDNAKNTVYLQMNSLKPEDTAVYYCAAGYRTAYRGSSYYYWGQGTQVTVSS”, which “polyreactivity (PSR sort gate)” value is on record?
The value was “high polyreactivity”.

For “QVQLVESGGGLVQAGGILRLSCAASGSTSYIYAMGWYRQAPGKERELVAAITWRTGRTYYADSVKGRFTISRDNAKNTVYLQMNSLKPEDTAVYYCAATYYLSFAVKMYYWGQGTQVTVSS”, which “polyreactivity (PSR sort gate)” value is on record?
The value was “high polyreactivity”.

For “QVQLVESGGGLVQAGGILRLSCAPSGSTFTFYAMGLYRQAPGKERELVAAINSSGGRTYYADSVKGRFTISRDNAKNTVYLQMNSLKPEDTAVYYCAARRPLVRYIMGYWGQGTQVTVSS”, which “polyreactivity (PSR sort gate)” value is on record?
The value was “high polyreactivity”.

For “QVQLVESGGGLVQAGGILRLSCASSGRIFTRYAMGWYRPAPGKEREFVAAINYRGSSTYYADSVKGRFTISRDNAKNTVYLQMNSLKPEETAVDYCNTYGQTDTYWRYYYWGQGTQVTVSS”, which “polyreactivity (PSR sort gate)” value is on record?
The value was “high polyreactivity”.

Which “polyreactivity (PSR sort gate)” value does the source give for “QVQLVESGGGLVQAGGILRLSCASSGRTFRYYAKGWYRQAPGKERELVATISKSGGSTYYADSVKGRFTISRDNAKNTVYLQMNRLKPEDTAVYYCAAVGPYRWYDYWGQGTQVTVSS” here?
Its value is “high polyreactivity”.

For “QVQLVESGGGLVQAGGILRLSCDASGRIFYTYAMGWYRHGPGQERELVAAISRSGTSTYYADSLKGRFTIARDNEKNHVYLQMNSLKPEDTAVYYCAIYKRLPDYGYWGQGTLVTVSS”, which “polyreactivity (PSR sort gate)” value is on record?
Its value is “high polyreactivity”.

Which “polyreactivity (PSR sort gate)” value does the source give for “QVQLVESGGGLVQAGGILRLSCDASGSIFVYNAMGWYRQAPGKERELVAGITFIGGSTYYADSVKGRFTISRDNAKNTVYLQMNSLKPEDTAVYYCNADVAPGIFYGYDSWGQGTQVTVSS” here?
Its value is “low polyreactivity”.

Which “polyreactivity (PSR sort gate)” value does the source give for “QVQLVESGGGLVQAGGILRLSCPASGRTFEYYAMGWYRQAPGKERELVASISFGGGSTYADSVKGRFTISRDNAKNTVYLQMNSLKPEDTAVYYCAATGGWYKHWFDYWGQGTQVTVSS” here?
Its value is “low polyreactivity”.

For “QVQLVESGGGLVQAGGILRLTCAASGRTNTYNAMGSYRQAPGKERELVAAITWSGGSTYYADSVKGRFTISRDNAKNTVYLQMNSLKPEDTAVYYCAKEFYYSSGFDYWGQGTQVTVSS”, which “polyreactivity (PSR sort gate)” value is on record?
Its value is “low polyreactivity”.

For “QVQLVESGGGLVQAGGILSLSCAASGSTFVGNAMGWYRPAPGKERELVATISNSGGRTYYADSVKGRFTISRDNAKNTVYLQMNSLKPEETAVYYCAADPPAFGPGYSFDYWGHGTQVTVSS”, which “polyreactivity (PSR sort gate)” value is on record?
Its value is “low polyreactivity”.

Which “polyreactivity (PSR sort gate)” value does the source give for “QVQLVESGGGLVQAGGILSLSCADSGRIFDIYAMGWYRQAPGKERELVASISWSGDSTYYADSVKGRFTISRDNAKNTVYLQMNSLKPEDTAVYYCDAVGEDTEGYDFDYWGQGTQVTVSS” here?
Its value is “low polyreactivity”.

With “QVQLVESGGGLVQAGGNLRLSCAASGLIFWYNAMGWYRQAPGKERELVAAINWSGDSTYYADSVKGRFTISRDNAKNTVYLQMNSLKPEDTAVYYCAATEQSYGYDYWGQGTQVTVSS” as the sequence, how does the “polyreactivity (PSR sort gate)” value read?
The value was “low polyreactivity”.
